Laboratory results published in EP3196312B1, “EFFICIENT CONVERSION OF METHYLGLYOXAL INTO HYDROXYACETONE USING NOVEL ENZYMES AND APPLI CATIONS THEREOF” (Metabolic Explorer, priority 2016, dated 2017).

Tests used:
Test in all cases: Methylglyoxal reductase kinetic parameters of purified enzyme (NAD(P)H consumption at 340 nm)
[1] = substrate: CC(=O)C=O; assay type: biochemical, Escherichia coli; settings: other: substrate methylglyoxal 0.1-40 mM, pH 7.5
Experimental: (§1) Except for the strain 18, the proteins were purified from the crude cell-extract by affinity on a Profinity column (BIORAD, Bio-Scale Mini Profinity exact cartridge 5 ml) according to the protocol recommended by the manufacturer. The crude extract was loaded on a 5 ml Profinity exact cartridge equilibrated with 100 mM potassium phosphate pH 7.6. The column was washed with 10 column volumes of the same buffer and incubated 30min with 100 mM potassium phosphate pH 7.6, 100 mM fluoride at room temperature. The protein was eluted from the column with 2 column volumes of 100 mM potassium phosphate pH 7.6. The tag remained tightly bound to the resin and the purified protein was released. The fractions containing the protein were pooled, concentrated and loaded on a gel filtration column (Superdex 200 10/300 GL column, GE Healthcare) equilibrated with different storage buffers (Table 3). Protein concentration was measured using the Bradford protein assay.
(§2) Methylglyoxal reductase activity (MGR) was determined by measuring the consumption of NAD(P)H at 340 nm on a spectrophotometer at 30°C (λ340 = 6290 M^-1 cm^-1). The reaction mixture (1mL) containing assay buffer and purified enzyme was incubated for 5 min at 30°C. Then, 0.1-40 mM methylglyoxal was added to start the reaction. One unit of enzyme activity was defined as the amount of enzyme catalyzing the decrease of 1µmol of NAD(P)H per min. Kinetic parameters were determined with Sigmaplot.

[2] = substrate: CC(=O)C=O; assay type: biochemical, Gluconobacter oxydans; settings: other: substrate methylglyoxal 0.1-40 mM, cofactor NADPH, 20mM Hepes (pH7.5), 30°C, pH 7.5
Experimental: as §1
as §2, with “One unit of enzyme activity was defined as the amount of enzyme catalyzing the decrease of 1µmol of NAD(P)H per min.” left out

[3] = substrate: CC(=O)C=O; assay type: biochemical, Bacillus subtilis; settings: other: substrate methylglyoxal 0.1-40 mM, cofactor NADPH, 20mM Hepes (pH7.5) 0.1mM ZnSO4, 30°C, pH 7.5
Experimental: as §1
as §2, with “One unit of enzyme activity was defined as the amount of enzyme catalyzing the decrease of 1µmol of NAD(P)H per min.” left out

[4] = substrate: CC(=O)C=O; assay type: biochemical, Klebsiella pneumoniae; settings: other: substrate methylglyoxal 0.1-40 mM, cofactor NADH, 50 mM Imidazole (pH7), 30°C, pH 7.0
Experimental: as §1
as §2, with “One unit of enzyme activity was defined as the amount of enzyme catalyzing the decrease of 1µmol of NAD(P)H per min.” left out

[5] = substrate: CC(=O)C=O; assay type: biochemical, Dickeya zeae; settings: other: substrate methylglyoxal 0.1-40 mM, cofactor NADPH, 20mM Hepes (pH7.5), 30°C, pH 7.5
Experimental: as §1
as §2, with “One unit of enzyme activity was defined as the amount of enzyme catalyzing the decrease of 1µmol of NAD(P)H per min.” left out

[6] = substrate: CC(=O)C=O; assay type: biochemical, Hypocrea jecorina; settings: other: substrate methylglyoxal 0.1-40 mM, cofactor NADPH, 10mM sodium phosphate (pH 7), 30°C
Experimental: as §1
as §2, with “One unit of enzyme activity was defined as the amount of enzyme catalyzing the decrease of 1µmol of NAD(P)H per min.” left out

[7] = cofactor NADPH, 20mM Hepes (pH7.5), 30°C
[8] = cofactor NADH, 20mM Hepes (pH7.5) 0.1mM FeSO4, 30°C

B1: Escherichia coli YqhD (alcohol dehydrogenase, Uniprot Q46856), wild type, SEQ ID NO: 7 (Escherichia coli K-12) (protein)
chain: MNNFNLHTPTRILFGKGAIAGLREQIPHDARVLITYGGGSVKKTGVLDQVLDALKGMDVLEFGGIEPNPAYETLMNAVKLVREQKVTFLLAVGGGSVLDGTKFIAAAANYPENIDPWHILQTGGKEIKSAIPMGCVLTLPATGSESNAGAVISRKTTGDKQAFHSAHVQPVFAVLDPVYTYTLPPRQVANGVVDAFVHTVEQYVTKPVDAKIQDRFAEGILLTLIEDGPKALKEPENYDVRANVMWAATQALNGLIGAGVPQDWATHMLGHELTAMHGLDHAQTLAIVLPALWNEKRDTKRAKLLQYAERVWNITEGSDDERIDAAIAATRNFFEQLGVPTHLSDYGLDGSSIPALLKKLEEHGMTQLGENHDITLDVSRRIYEAAR
Km ([1]; cofactor NADPH, 20mM Hepes (pH7.5) 0.1mM ZnSO4, 30°C): 2090 µM

B2: Escherichia coli YdhF (Oxidoreductase YdhF, Uniprot P76187), SEQ ID NO: 105 (Escherichia coli K-12) (protein)
chain: MVQRITIAPQGPEFSRFVMGYWRLMDWNMSARQLVSFIEEHLDLGVTTVDHADIYGGYQCEAAFGEALKLAPHLRERMEIVSKCGIATTAREENVIGHYITDRDHIIKSAEQSLINLATDHLDLLLIHRPDPLMDADEVADAFKHLHQSGKVRHFGVSNFTPAQFALLQSRLPFTLATNQVEISPVHQPLLLDGTLDQLQQLRVRPMAWSCLGGGRLFNDDYFQPLRDELAVVAEELNAGSIEQVVYAWVLRLPSQPLPIIGSGKIERVRAAVEAETLKMTRQQWFRIRKAALGYDVP
Km [1, 7]: 21800 µM
kcat/Km [1, 7]: 350 M⁻¹ s⁻¹

B3: Gluconobacter oxydans Gld (putative oxidoreductase, Uniprot Q5FQJ0), SEQ ID NO: 5 (Gluconobacter oxydans 621H) (protein)
chain: MASDTIRIPGIDTPLSRVALGTWAIGGWMWGGPDDDNGVRTIHAALDEGINLIDTAPVYGFGHSEEIVGRALAEKPNKAHVATKLGLHWVGEDEKNMKVFRDSRPARIRKEVEDSLRRLRVETIDLEQIHWPDDKTPIDESARELQKLHQDGKIRALGVSNFSPEQMDIFREVAPLATIQPPLNLFERTIEKDILPYAEKHNAVVLAYGALCRGLLTGKMNRDTTFPKDDLRSNDPKFQKPNFEKYLAAMDEFEKLAEKRGKSVMAFAVRWVLDQGPVIALWGARKPGQVSGVKDVFGWSLTDEEKKAVDDILARHVPNPIDPTFMAPPARD
Km [2]: 1100 µM
kcat/Km [2]: 8740 M⁻¹ s⁻¹

B4: Bacillus subtilis YhdN (general stress protein 69, Uniprot P80874), SEQ ID NO: 3 (Bacillus subtilis subsp. subtilis str. 168) (protein)
chain: MEYTSIADTGIEASRIGLGTWAIGGTMWGGTDEKTSIETIRAALDQGITLIDTAPAYGFGQSEEIVGKAIKEYGKRDQVILATKTALDWKNNQLFRHANRARIVEEVENSLKRLQTDYIDLYQVHWPDPLVPIEETAEVMKELYDAGKIRAIGVSNFSIEQMDTFRAVAPLHTIQPPYNLFEREMEESVLPYAKDNKITTLLYGSLCRGLLTGKMTEEYTFEGDDLRNHDPKFQKPRFKEYLSAVNQLDKLAKTRYGKSVIHLAVRWILDQPGADIALWGARKPGQLEALSEITGWTLNSEDQKDINTILENTISDPVGPEFMAPPTREEI
Km [3]: 640 µM
kcat/Km [3]: 5920 M⁻¹ s⁻¹

B5: Escherichia coli YiaY (Probable alcohol dehydrogenase, Uniprot P37686), SEQ ID NO: 111 (Escherichia coli K-12) (protein)
chain: MAASTFFIPSVNVIGADSLTDAMNMMADYGFTRTLIVTDNMLTKLGMAGDVQKALEERNIFSVIYDGTQPNPTTENVAAGLKLLKENNCDSVISLGGGSPHDCAKGIALVAANGGDIRDYEGVDRSAKPQLPMIAINTTAGTASEMTRFCIITDEARHIKMAIVDKHVTPLLSVNDSSLMIGMPKSLTAATGMDALTHAIEAYVSIAATPITDACALKAVTMIAENLPLAVEDGSNAKAREAMAYAQFLAGMAFNNASLGYVHAMAHQLGGFYNLPHGVCNAVLLPHVQVFNSKVAAARLRDCAAAMGVNVTGKNDAEGAEACINAIRELAKKVDIPAGLRDLNVKEEDFAVLATNALKDACGFTNPIQATHEEIVAIYRAAM
Km [1, 8]: 2840 µM
kcat/Km [1, 8]: 340 M⁻¹ s⁻¹

B6: Klebsiella pneumoniae BudC (Diacetyl reductase [(S)-acetoin forming], Uniprot Q48436), SEQ ID NO: 113 (Klebsiella pneumoniae) (protein)
chain: MKKVALVTGAGQGIGKAIALRLVKDGFAVAIADYNDATAKAVASEINQAGGRAMAVKVDVSDRDQVFAAVEQARKTLGGFDVIVNNAGVAPSTPIESITPEIVDKVYNINVKGVIWGIQAAVEAFKKEGHGGKIINACSQAGHVGNPELAVYSSSKFAVRGLTQTAARDLAPLGITVNGYCPGIVKTPMWAEIDRQVSEAAGKPLGYGTAEFAKRITLGRLSEPEDVAACVSYLASPDSDYMTGQSLLIDGGMVFN
Km [4]: 74800 µM
kcat/Km [4]: 4200 M⁻¹ s⁻¹

B7: Escherichia coli YafB (2,5-diketo-D-gluconic acid reductase B, Uniprot P30863), SEQ ID NO: 99 (Escherichia coli K-12) (protein)
chain: MAIPAFGLGTFRLKDDVVISSVITALELGYRAIDTAQIYDNEAAVGQAIAESGVPRHELYITTKIWIENLSKDKLIPSLKESLQKLRTDYVDLTLIHWPSPNDEVSVEEFMQALLEAKKQGLTREIGISNFTIPLMEKAIAAVGAENIATNQIELSPYLQNRKVVAWAKQHGIHITSYMTLAYGKALKDEVIARIAAKHNATPAQVILAWAMGEGYSVIPSSTKRKNLESNLKAQNLQLDAEDKKAIAALDCNDRLVSPEGLAPEWD
Km [1, 7]: 8200 µM
kcat/Km [1, 7]: 2060 M⁻¹ s⁻¹

B8: Escherichia coli YeaE (Uncharacterized protein YeaE, Uniprot P76234), SEQ ID NO: 107 (Escherichia coli K-12) (protein)
chain: MQQKMIQFSGDVSLPAVGQGTWYMGEDASQRKTEVAALRAGIELGLTLIDTAEMYADGGAEKVVGEALTGLREKVFLVSKVYPWNAGGQKAINACEASLRRLNTDYLDLYLLHWSGSFAFEETVAAMEKLIAQGKIRRWGVSNLDYADMQELWQLPGGNQCATNQVLYHLGSRGIEYDLLPWCQQQQMPVMAYSPLAQAGRLRNGLLKNAVVNEIAHAHNISAAQVLLAWVISHQGVMAIPKAATIAHVQQNAAVLEVELSSAELAMLDKAYPAPKGKTALDMV
Km [1, 7]: 1590 µM
kcat/Km [1, 7]: 910 M⁻¹ s⁻¹

B9: Escherichia coli YahK (aldehyde reductase, Uniprot P75691), SEQ ID NO: 1 (Escherichia coli K-12) (protein)
chain: MKIKAVGAYSAKQPLEPMDITRREPGPNDVKIEIAYCGVCHSDLHQVRSEWAGTVYPCVPGHEIVGRVVAVGDQVEKYAPGDLVGVGCIVDSCKHCEECEDGLENYCDHMTGTYNSPTPDEPGHTLGGYSQQIVVHERYVLRIRHPQEQLAAVAPLLCAGITTYSPLRHWQAGPGKKVGVVGIGGLGHMGIKLAHAMGAHVVAFTTSEAKREAAKALGADEVVNSRNADEMAAHLKSFDFILNTVAAPHNLDDFTTLLKRDGTMTLVGAPATPHKSPEVFNLIMKRRAIAGSMIGGIPETQEMLDFCAEHGIVADIEMIRADQINEAYERMLRGDVKYRFVIDNRTLTD
Km [1, 7]: 1410 µM
kcat/Km [1, 7]: 8300 M⁻¹ s⁻¹

B10: Dickeya zeae Adh3.2 (Group III alcohol dehydrogenase, Uniprot R4Z7U3), SEQ ID NO: 103 (Dickeya zeae) (protein)
chain: MQNFTLHTPTKILFGEGQIAALADQIPADARILITYGGGSIKKNGVFDQVINALKGRNVVEFSGIEPNPTYETLMKAVEIVRKENIDFLLAVGGGSVADGTKFIAAAVNYKAAEDPWHILQTWGAHVESAIPLGVVLTLPATGSESNSGAVITRKSTGDKQAFMNPLVCPRFAVLDPVVTYTLPERQIANGVVDAFVHTVEQYLTYPVDAKVQDRFAEGLLLTLIEEGPRALKEQHNYNVRANVMWSATMALNGLIGAGVPQDWSTHMLGHEITAMHGLDHAQTLAIVLPAMLNERRVQKREKLLQYAERVWNLRDGSDDQRIDGAIAATRAFFEQMGVPTRLSDYQLDGSSIPALVAKLEEHGMTALGENKDITLDISKRVYEAAR
Km [5]: 6700 µM
kcat/Km [5]: 170 M⁻¹ s⁻¹

B11: Hypocrea jecorina Gld2 (Glycerol 2-dehydrogenase (NADP(+)), Uniprot Q0GYU4), SEQ ID NO: 109 (Trichoderma reesei) (protein)
chain: MASKTYTLNTGAKIPAVGFGTFANEGAKGETYAAVTKALDVGYRHLDCAWFYHNEDEVGDAVRDFLARRPDVKREDLFICTKVWNHLHEPEDVKWSAKNSCENLKVDYIDLFLVHWPIAAEKNSDRSVKLGPDGKYVINQALTENPEPTWRAMEELVESGLVKAIGVSNWTIPGLKKLLQIAKIKPAVNQIEIHPFLPNEELVAFCFENGILPEAYSPLGSQNQVPSTGERVRDNPTLKAVAERSGYSLAQILLAWGLKRGYVVLPKSSTPSRIESNFNIPELSDEDFEAIQQVAKGRHTRFVNMKDTFGYNVWPEEE
Km [6]: 7700 µM
kcat/Km [6]: 11100 M⁻¹ s⁻¹
